One block for each binder: values may come before it.
Experiments:
[1] = target: T1, GGCT (human, UniProt O75223 1-188); test: co-IP, anti-FLAG, lysate of cells with C-FLAG B3GNT2; mass spectrometry
T1 construct: also called NP_076956.1
T1 sequence (looked up): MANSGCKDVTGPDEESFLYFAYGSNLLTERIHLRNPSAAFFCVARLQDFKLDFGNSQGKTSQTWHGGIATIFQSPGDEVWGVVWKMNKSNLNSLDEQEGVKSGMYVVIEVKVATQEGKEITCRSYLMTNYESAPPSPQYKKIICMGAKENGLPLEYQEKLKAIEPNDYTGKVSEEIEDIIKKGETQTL
Method: (§1) Cells were plated in 10-cm cell culture dishes and grown to 60-80% confluency. For each condition, two biological replicates were harvested for co-IP. Cells were washed with PBS and 4 mL of lysis buffer (20 mM HEPES, 1% Triton X-100, 150 mM NaCl, 1 mM EDTA, and 10% glycerol) containing protease inhibitor cocktail was added. Cells were scraped and lysate was incubated at 4° C. under rotary agitation for 1 h. Lysate was centrifuged at 14,000×g for 10 min at 4° C. Supernatant was transferred to a new tube and an aliquot was taken as the input. […] For Western blots, 10 μg/mL Chicken Anti-FLAG (Aves labs ET-DY100) and IgY control (R&D Systems AB-101-C) antibodies were biotinylated (Thermo Fisher Scientific 90407) and added to the respective conditions. Lysates with antibodies were incubated at 4° C. under rotary agitation overnight. For each mL of lysate, 50 μL of Pierce Protein A/G Magnetic Beads (Mass spectrometry; Thermo Fisher Scientific 88803) or Pierce Streptavidin Magnetic Beads (Western blot; Thermo Fisher Scientific 88817) was washed twice with lysis buffer. Lysates with antibodies were added to the beads and incubated at 4° C. under rotary agitation for 4 h. Beads were washed with lysis buffer 3 times and resuspended in lysis buffer for storage.
(§2) Magnetic beads were resuspended in 100 mM Tris pH 7.8, reduced, alkylated and digested with trypsin at 37° ° C. overnight. This solution was subjected to solid phase extraction to concentrate the peptides and remove unwanted reagents followed by injection onto a Shimadzu HPLC with fraction collector. Eight fractions were collected and after concentration were injected on a Waters NanoAcquity HPLC equipped with a self-packed Aeris 3 μm C18 analytical column 0.075 mm by 20 cm, (Phenomenex). Peptides were eluted using standard reverse-phase gradients. The effluent from the column was analyzed using a Thermo Orbitrap Elite mass spectrometer (nanospray configuration) operated in a data dependent manner for 54 minutes. The resulting fragmentation spectra were correlated against the known database using Proteome Discover 1.4 (Thermo Fisher Scientific).

[2] = target: RPS11 (UniProt P62280 2-158); test: co-IP with anti-FLAG, mass spectrometry; N-FLAG B3GNT2
Method: as §1, §2

[3] = target: T2, CTSD (UniProt P07339 65-412, limits assumed); test: as above
T2 construct: Endogenous protein found in the co-IP by mass spectrometry; also called NP_001900.1
T2 sequence (P07339 65-412 limits assumed): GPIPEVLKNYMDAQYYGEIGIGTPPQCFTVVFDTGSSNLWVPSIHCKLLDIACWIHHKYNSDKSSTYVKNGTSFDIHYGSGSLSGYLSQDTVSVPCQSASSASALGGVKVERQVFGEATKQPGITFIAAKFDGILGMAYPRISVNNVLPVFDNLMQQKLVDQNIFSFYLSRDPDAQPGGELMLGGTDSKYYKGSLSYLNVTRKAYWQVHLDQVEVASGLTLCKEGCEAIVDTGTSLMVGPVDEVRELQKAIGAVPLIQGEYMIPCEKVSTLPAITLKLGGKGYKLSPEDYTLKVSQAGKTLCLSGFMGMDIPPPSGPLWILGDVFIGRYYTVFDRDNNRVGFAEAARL
Method: as §1, §2

[4] = target: T3, EEF1A1 (UniProt P68104 2-462); test: as above
T3 construct: Endogenous protein found in the co-IP by mass spectrometry; also called NP_001393.1
T3 sequence (looked up): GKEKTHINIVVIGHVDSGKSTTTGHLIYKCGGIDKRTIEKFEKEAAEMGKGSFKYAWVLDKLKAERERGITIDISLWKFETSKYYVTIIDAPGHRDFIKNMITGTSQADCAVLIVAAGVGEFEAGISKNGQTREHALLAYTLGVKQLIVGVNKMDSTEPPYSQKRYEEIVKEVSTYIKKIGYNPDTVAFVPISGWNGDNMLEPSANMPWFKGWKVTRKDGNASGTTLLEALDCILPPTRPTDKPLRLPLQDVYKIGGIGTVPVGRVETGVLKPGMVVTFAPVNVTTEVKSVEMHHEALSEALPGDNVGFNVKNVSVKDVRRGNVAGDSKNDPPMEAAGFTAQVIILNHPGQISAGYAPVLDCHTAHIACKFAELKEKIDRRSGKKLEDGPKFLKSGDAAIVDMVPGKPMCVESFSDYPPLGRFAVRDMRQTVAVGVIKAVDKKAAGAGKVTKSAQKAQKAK
Method: as §1, §2

[5] = target: RPL31 (UniProt P62899 1-125); test: as above
Method: as §1, §2

[6] = target: RPL21 (UniProt P46778 2-160); test: as above
Method: as §1, §2

[7] = target: T4, RPLP2 (UniProt P05387 1-115); test: as above
T4 construct: Endogenous protein found in the co-IP by mass spectrometry; also called NP_000995.1
T4 sequence (P05387 whole entry): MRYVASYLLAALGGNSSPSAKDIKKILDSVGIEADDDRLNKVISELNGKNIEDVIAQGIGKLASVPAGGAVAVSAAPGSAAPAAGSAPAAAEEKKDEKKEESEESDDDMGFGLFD
Method: as §1, §2

[8] = target: T5, LTF (UniProt P02788 20-710, limits assumed); test: as above
T5 construct: Protein found in the co-IP by mass spectrometry; also called NP_001308051.1
T5 sequence (P02788 20-710 limits assumed): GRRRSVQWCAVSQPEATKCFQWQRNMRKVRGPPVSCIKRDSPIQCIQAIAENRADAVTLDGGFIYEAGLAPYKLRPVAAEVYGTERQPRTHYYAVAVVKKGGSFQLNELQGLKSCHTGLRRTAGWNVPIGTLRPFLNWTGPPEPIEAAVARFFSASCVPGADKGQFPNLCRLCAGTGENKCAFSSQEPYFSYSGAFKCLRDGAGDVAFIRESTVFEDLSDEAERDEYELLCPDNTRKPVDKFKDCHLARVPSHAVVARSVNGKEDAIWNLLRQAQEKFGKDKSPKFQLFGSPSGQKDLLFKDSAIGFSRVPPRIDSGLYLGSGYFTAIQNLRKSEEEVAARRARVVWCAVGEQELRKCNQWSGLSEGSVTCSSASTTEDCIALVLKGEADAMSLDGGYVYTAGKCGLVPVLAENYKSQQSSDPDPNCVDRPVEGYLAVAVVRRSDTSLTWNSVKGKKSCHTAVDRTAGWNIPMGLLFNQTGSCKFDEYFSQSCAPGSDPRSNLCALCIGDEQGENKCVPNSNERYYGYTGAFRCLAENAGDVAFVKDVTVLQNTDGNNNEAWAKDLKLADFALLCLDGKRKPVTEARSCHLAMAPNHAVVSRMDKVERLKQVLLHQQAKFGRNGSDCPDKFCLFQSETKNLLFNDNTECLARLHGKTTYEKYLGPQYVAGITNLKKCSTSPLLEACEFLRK
Method: as §1, §2

[9] = target: T6, YBX3 (UniProt P16989 2-372, limits assumed); test: as above
T6 construct: Endogenous protein found in the co-IP by mass spectrometry; also called XP_016875611.1 (+1)
T6 sequence (P16989 2-372 limits assumed): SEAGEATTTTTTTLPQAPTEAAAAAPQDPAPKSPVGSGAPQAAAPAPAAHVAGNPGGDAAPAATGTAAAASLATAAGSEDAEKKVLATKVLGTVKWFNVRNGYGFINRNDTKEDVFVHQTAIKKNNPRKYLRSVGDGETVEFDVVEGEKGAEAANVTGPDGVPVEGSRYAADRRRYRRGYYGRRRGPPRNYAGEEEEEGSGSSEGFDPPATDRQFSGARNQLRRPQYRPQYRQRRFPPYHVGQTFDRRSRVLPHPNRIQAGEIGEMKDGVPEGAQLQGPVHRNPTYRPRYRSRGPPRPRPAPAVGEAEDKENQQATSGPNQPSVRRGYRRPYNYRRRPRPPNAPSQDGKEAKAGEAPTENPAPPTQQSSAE
Method: as §1, §2

[10] = target: T7, HNRNPA1 (UniProt P09651 2-372); test: as above
T7 construct: Endogenous protein found in the co-IP by mass spectrometry; also called NP_112420.1
T7 sequence (P09651 2-372 limits assumed): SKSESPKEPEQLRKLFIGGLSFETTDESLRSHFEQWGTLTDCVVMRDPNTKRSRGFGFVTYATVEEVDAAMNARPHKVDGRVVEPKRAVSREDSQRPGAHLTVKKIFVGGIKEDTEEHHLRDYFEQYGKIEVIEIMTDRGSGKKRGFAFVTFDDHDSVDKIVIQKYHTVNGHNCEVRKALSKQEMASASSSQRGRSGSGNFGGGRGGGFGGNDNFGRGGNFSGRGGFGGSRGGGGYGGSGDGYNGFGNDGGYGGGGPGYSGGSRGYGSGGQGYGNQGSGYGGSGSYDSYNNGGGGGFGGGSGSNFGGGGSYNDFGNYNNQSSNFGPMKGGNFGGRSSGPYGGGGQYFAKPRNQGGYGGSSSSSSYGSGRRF
Method: as §1, §2

[11] = target: T8, HNRNPF (UniProt P52597 2-415); test: as above
T8 construct: Endogenous protein found in the co-IP by mass spectrometry; also called NP_001091676.1
T8 sequence (looked up): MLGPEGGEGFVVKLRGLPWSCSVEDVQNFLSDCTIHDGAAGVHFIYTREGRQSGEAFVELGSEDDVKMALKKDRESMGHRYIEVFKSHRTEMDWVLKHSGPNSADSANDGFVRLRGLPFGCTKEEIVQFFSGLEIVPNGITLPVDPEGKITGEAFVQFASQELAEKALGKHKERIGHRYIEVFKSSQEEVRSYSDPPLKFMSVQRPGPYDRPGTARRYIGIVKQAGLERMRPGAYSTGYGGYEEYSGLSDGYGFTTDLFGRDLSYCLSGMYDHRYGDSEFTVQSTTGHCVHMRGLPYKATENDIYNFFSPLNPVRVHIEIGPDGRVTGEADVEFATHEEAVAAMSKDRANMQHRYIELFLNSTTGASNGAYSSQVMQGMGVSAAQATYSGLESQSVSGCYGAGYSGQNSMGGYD
Method: as §1, §2

co-IP mass spectrometry count [1]: 0
B1: C-terminal FLAG tagged B3GNT2 (enzyme, human, UniProt Q9NY97 1-397, looked up)
chain: MSVGRRRIKLLGILMMANVFIYFIMEVSKSSSQEKNGKGEVIIPKEKFWKISTPPEAYWNREQEKLNRQYNPILSMLTNQTGEAGRLSNISHLNYCEPDLRVTSVVTGFNNLPDRFKDFLLYLRCRNYSLLIDQPDKCAKKPFLLLAIKSLTPHFARRQAIRESWGQESNAGNQTVVRVFLLGQTPPEDNHPDLSDMLKFESEKHQDILMWNYRDTFFNLSLKEVLFLRWVSTSCPDTEFVFKGDDDVFVNTHHILNYLNSLSKTKAKDLFIGDVIHNAGPHRDKKLKYYIPEVVYSGLYPPYAGGGGFLYSGHLALRLYHITDQVHLYPIDDVYTGMCLQKLGLVPEKHKGFRTFDIEEKNKNNICSYVDLMLVHSRKPQEMIDIWSQLQSAHLKC
notes: Overexpressed in cells and pulled down from the lysate with mouse anti-FLAG antibody; also called C-FLAG B3GNT2; C-term flag; not shown: C-terminal FLAG tag

co-IP mass spectrometry count [2]: 13 | co-IP mass spectrometry count [3]: 3 | co-IP mass spectrometry count [4]: 13 | co-IP mass spectrometry count [5]: 0 | co-IP mass spectrometry count [6]: 8 | co-IP mass spectrometry count [7]: 6 | co-IP mass spectrometry count [8]: 8 | co-IP mass spectrometry count [9]: 0 | co-IP mass spectrometry count [10]: 7 | co-IP mass spectrometry count [11]: 0
B2: N-terminal FLAG tagged B3GNT2 (enzyme, human, UniProt Q9NY97 1-397, looked up)
chain: B1 chain
notes: FLAG-tagged ORF overexpressed in cells; bait of the anti-FLAG co-IP; also called N-FLAG B3GNT2; N-term FLAG; not shown: FLAG tag at the N-terminus
